Results on 2 molecules are retold here after patent publication US20200317802A1 (Merck KGaA, published 2020).

Experiment [1] deals with T1, recombinant human ADAMTS5 (R&D Systems cat #2198-AD) (human, UniProt Q9UNA0 262-622, limits assumed).
T1 construct: bought protein
T1 sequence: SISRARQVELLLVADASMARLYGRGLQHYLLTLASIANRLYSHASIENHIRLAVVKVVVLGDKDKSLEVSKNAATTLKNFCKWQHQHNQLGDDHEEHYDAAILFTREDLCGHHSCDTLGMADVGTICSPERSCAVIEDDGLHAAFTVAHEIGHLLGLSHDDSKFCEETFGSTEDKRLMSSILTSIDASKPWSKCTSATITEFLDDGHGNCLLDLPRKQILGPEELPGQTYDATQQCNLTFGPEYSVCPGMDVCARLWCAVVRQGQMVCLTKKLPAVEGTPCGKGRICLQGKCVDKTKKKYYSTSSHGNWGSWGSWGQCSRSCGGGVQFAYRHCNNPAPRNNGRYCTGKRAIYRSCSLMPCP
Briefly: binding ELISA, periplasmic extract on coated human ADAMTS5. How it is done:
In a first step, periplasmic extracts were tested for binding to recombinant human ADAMTS5 by binding ELISA. In brief, recombinant human ADAMTS5 (R&D Systems, Minneapolis, US; cat #2198-AD) at a concentration of 1 μg/ml was coated on 384-well MaxiSorp plates (Nunc, Wiesbaden, Germany). Wells were blocked with a casein solution (1%). After addition of a 10-fold dilution of the periplasmic extracts, Nanobody binding was detected using a mouse anti-Flag-HRP conjugate (Sigma, St. Louis, US) and a subsequent enzymatic reaction in the presence of the substrate esTMB (3,3′,5,5′-tetramentylbenzidine) (SDT, Brussels, Belgium). Clones showing ELISA signals higher than the sum of the average signal of the irrelevant Nanobody controls and 3 times the standard deviation of the irrelevant Nanobody controls were considered to encode positive human ADAMTS5 binding Nanobodies.
(An ELISA detects its analyte on a solid surface through an enzyme-linked reagent.)

Experiment [2] concerns the target T1, recombinant human ADAMTS5 (R&D Systems …). Description: cell-based or functional assay.
For experiment [3] the target is unchanged. Briefly: SPR off-rate, Biacore T100, ADAMTS5 immobilised, experiment 2. How it is done: (§1) Species cross-reactivity was initially evaluated via SPR-based off-rate analysis on a Biacore T100 instrument. Nanobodies were tested for binding to human, cynomolgus monkey (“cyno”), guinea pig, mouse, and bovine ADAMTS5. To this end, recombinant ADAMTS5 was immobilized onto a CM5 chip via amine coupling using EDC and NHS. Purified Nanobodies were injected for 2 minutes at a concentration of 100 nM and allowed to dissociate for 15 min at a flow rate of 45 ul/min. Off-rate for each individual Nanobody was determined by fitting a 1:1 interaction model (Langmuir model) onto the individual dissociation curves using the BIA Evaluation software. As a reference, off-rates on human ADAMTS5 were determined in each experiment.
On the technique in general: Surface plasmon resonance follows binding to a sensor surface in real time, without labels.

For experiment [4], the target named is T2, mouse recombinant ADAMTS5 (mouse, UniProt Q9R001 262-622, limits assumed).
T2 construct: in house, HEK293, His tag in the entry
T2 sequence: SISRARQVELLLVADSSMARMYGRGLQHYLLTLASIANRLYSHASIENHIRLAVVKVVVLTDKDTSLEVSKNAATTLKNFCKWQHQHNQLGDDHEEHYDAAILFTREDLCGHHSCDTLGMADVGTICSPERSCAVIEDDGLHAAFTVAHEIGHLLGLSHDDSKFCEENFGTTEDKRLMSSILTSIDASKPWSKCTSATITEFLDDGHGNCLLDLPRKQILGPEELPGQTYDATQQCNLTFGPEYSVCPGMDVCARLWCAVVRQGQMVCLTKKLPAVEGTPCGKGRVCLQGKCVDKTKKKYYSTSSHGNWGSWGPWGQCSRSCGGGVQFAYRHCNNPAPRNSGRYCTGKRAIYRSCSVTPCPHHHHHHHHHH
Described as above. How it is done:
as §1

The koff is the rate constant with which the complex falls apart.

B1: Nanobody 2A12 (VHH)
VHH: EVQLVESGGGLVQAGGSLRLSCAASGRTFSSYAMGWFRQAPGKERDFVAGISRSAGRTYYVDSVKGRFTISRDSAKNTVYLQMNRLKPEDTAVYYCAADLDPNRIFSRDEAAYWGQGTLVTVSS
notes: tagged as tested (anti-Flag detection, IMAC); also called 02A12
As for B1, the “binding ELISA (OD 450 nm)” value in experiment [1] was 1.75 OD 450 nm. In experiment [2], the “Human AlphaLISA % inhibition” value turned out to be 100% and the “Human AlphaLISA IC50” value was found to be 0.15 nM. For the same molecule, the off-rate (koff) in experiment [3] came out at 0.00023 s⁻¹. Also, in experiment [4], the koff stood at 0.00044 s⁻¹.

B2: Nanobody 2F03 (VHH)
VHH: EVQLVESGGGLVQAGGSLRLSCAASGRTVSSYAMGWFRLAPGKEREFVAGISRSAERTYYVDSLKGRFTISRDSAKNTVYLHMNRLKPEDTAVYYCAADLDPNRIFSREEYAYWGQGTLVTVSS
notes: tagged as tested (anti-Flag detection, IMAC); also called 02F03; 2F3
Turning to B2, the “binding ELISA (OD 450 nm)” value in experiment [1] amounted to 1.84 OD 450 nm. Further, in experiment [2], the “Human AlphaLISA % inhibition” value came to 100% and the “Human AlphaLISA IC50” value was determined as 0.075 nM. Moreover, the koff in experiment [3] was 6.5e-05 s⁻¹. Besides, the off-rate constant (koff) in experiment [4] was 0.00029 s⁻¹.
